{
  "source": "paper PMC5435912",
  "key": {"[1]": {"molecular_target": "CdiI^Ykris-His6, immunity protein of Yersinia kristensenii ATCC 33638 (Yersinia kristensenii ATCC 33638)", "assay": "BLI"}, "[2]": {"molecular_target": "bovine pancreatic RNase A, biotinylated (bovine) (UniProt P61823)", "sequence (P61823 27-150)": "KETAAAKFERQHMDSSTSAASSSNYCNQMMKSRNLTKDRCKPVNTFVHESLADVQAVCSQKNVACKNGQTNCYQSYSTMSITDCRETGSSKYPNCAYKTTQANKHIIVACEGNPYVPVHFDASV", "assay": "BLI"}},
  "data": [
    {"substance": "CdiA-CT^Ykris, C-terminal toxin region of CdiA from Yersinia kristensenii ATCC 33638 (domain or fragment)", "values": [
      {"measurement": "Kd", "setting": "[1]", "value": 40.9, "unit": "nM"}
    ]},
    {"substance": "CdiI^Ykris-His6, immunity protein of Yersinia kristensenii ATCC 33638 (natural protein)", "values": [
      {"measurement": "Kd", "setting": "[2]", "value": 1950, "unit": "nM"}
    ]}
  ]
}
